koff and Kd data for two molecules are collected here from article doi:10.1101/2021.12.03.471045 (2021).

Assay [1] deals with T1, early pandemic (Wuhan) SARS-CoV-2 RBD (SARS-CoV-2, UniProt P0DTC2). Put plainly: SPR.
The target of assay [2] is T1, early pandemic (Wuhan) SARS-CoV-2 RBD. The assay can be described thus: SPR. This is another data set of the same source. (SPR reads the build-up and loss of mass on a sensor chip optically.)

B1: EY6A mAb (IgG) (antibody, V domains shown)
VH: EVQLVESGGGVVQPGRSLRLSCAASAFTFSSYDMHWVRQAPGKGLEWVAVISYDGSNKYYADSVKGRFTISRDNSKNTLYLQMNSLRAEDTAVYYCAKDGGKLWVYYFDYWGQGTLVTVSS
VL: not shown
The koff is the first-order rate constant of dissociation. Read a high koff as fast dissociation. B1 returned a koff in assay [1] of 0.0048 s⁻¹.

B2: Beta-55 mAb (IgG) (antibody, V domains shown)
VH: QVQLQESGPGLVKPSETLSLTCTVSGDSISSSRYYWGWIRQPPGKGLEWIGTFYYSGITYYNPSLKSRVTIFVDTSKNQFSLKLSSVTAADTAVYYCARPRPPDYYDNSGALLFDIWGQGTMVTVSS
VL: AIRMTQSPSTLSASVGDRVTIACRASQSISAWLAWYQQKPGKAPKLLIYKASSLESGVPSRFSGSGSGTEFTLTINSLQPDDFATYYCQQYISSSPWTFGQGTKVEIK
What is called Kd is the equilibrium constant for the complex coming apart. A high value points to a looser complex. In assay [1], B2 had a koff of 0.00018 s⁻¹. The molecule further gave a Kd in assay [2] of 177 pM.
